Source: paper doi:10.1101/2022.05.31.494262

Target: SARS-CoV-2 Nucleocapsid (N) protein, wildtype, SUMO1 modified (SARS-CoV-2 | not stated)
Assay: FRET or BRET

“SARS-CoV-2 Nucleocapsid (N) protein, wildtype, SUMO1 modified” gave a Kd of 460 nM.
